Experiment: yeast display, Sf9 membrane polyspecificity reagent, FACS + sequencing; frameworks hold sequencing errors
Procedure, shortened: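 Using colony PCR, genes from sorted yeast display clones were amplified, then sequenced on MiSeq at 2 × 250 and filtered by CDR length. The clones had been stained with 10% biotinylated, detergent-solubilized Sf9 membrane reagent for 1 hour at 4 °C and sorted by FACS into low and high (top ~1%) gates on anti-HA and streptavidin fluorescence. Polyreactivity labels come from the gate of origin.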

Sequence | polyreactivity (PSR sort gate)
QVHLVDSGGGLVQAGGSLGLNCAASGRTLRYNAMGWYRQATGIERELVAAINWNGGSTYYADSVKGRFTISRETAMYTVYLQMNRLKPEDTAVYFCNDDFYHRYDWGQGTQVTVSS | high polyreactivity
QVHLVDSGGGLVQAGGSLRLSCAASGFTYYAMGWYRQAPGKERELVAAITRSGGSTYYADSVKGRFTISRDNAKNSVYLQMKSLKPEDTAVYYCAASGKALKYTARYGSWGQGTQVNVSS | high polyreactivity
QVHLVDSGGGLVQAGGSLRLSCAASGRTFQVYTMGWSRQAPGKERELVAAITWNGGRTRYADSVKGRFTISRDNAKNTVYLQMTSLKPEDTAVYYCNAGNWITARAGFNDWGQGTQVTVSS | high polyreactivity
QVHLVDSGGGLVQAGGSLRLSCAASGRTSIRYAMAWYRQAPGKERELVAAITYAAGSTYYADSVTGRFTISRDNAKNTVYLQMNSLKPEDTAVYYCNARVYYHYDFWGQGTQVTVSS | high polyreactivity
QVHLVDSGGGLVQAGGSLRLSCAASGSTSGTNAMGWYRQAPGKERELVAGISYRGGSTYYADSVKGRFTISRDNAKNTVYLQMNSLKPEDTAVYYCAARKLKYRREYWGQGTQVTVSS | high polyreactivity
QVHLVDSGGGLVQAGGSLRLSCSASGLIFSGYAMRWYRQAPGKERELVAAITRRGSRTYYADSVTGRFTISRDKAKNTVYLQMNSLKPEDTAVYYCAADRFQGRDDYWGQGTQVTVSS | high polyreactivity
QVHLVESAAGFVQAGGSLRLSGAASGFILWYYTMGWYRQAPGKERELVAVIDWSGDSTYADSVKGRFTISLDNAKNSVYLQMNSLIPVDTAVYYWNADYFVVWARLEFNYWGQGTQVTVSS | low polyreactivity
QVHLVESAGGLVQAGGSLRLRCDASGRTFVLYTMGWYRQAPGKERELVAAIYGSGGRTYYADSVKGRLTISRDNAKNTVYLQMNSLKPEDTAVYYCAAYCQGLPLYGYWGQGTQVTVSS | high polyreactivity
QVHLVESCGGLVQAGGSLRLSCAASGITFWNYAMGRYRQAPGKETELVAAISYSGGSTYYADSVKGRFTISRDNAKNTFYLQMNSLKPEDTGVYYCAATLPTNWVRYDYWGQGTQVTVSS | low polyreactivity
QVHLVESGGCLVQAGGSLRLSCAASGRIYRYAMGWYRQAPGKERELVAVITRRGDGTYYADSVKGRFTISRDNAKNTVYLQMNSLKPEDTAVYYCNADQSYKRPWPYDYWGQGTQVTVSS | high polyreactivity
QVHLVESGGGIVQAGGSLRLSCAASGSIFGKNVMGWYRHAPGKERQLVAAITSGASTYYADSVKGRFTISRDNAKNTVYLQMNSLKPEDTPVYYCAARRWRKYYSGYNYWGQGTQVTVSS | high polyreactivity
QVHLVESGGGLDQAGGSLRLSCAASGSISLIYAMGWYRQAPGKERELVAAITSSGGSTYYADSVKGRFTISRDNAKNTVYLQMNSLKREDTAVYYCAAERWTRRHYSGNDYWGQGTQVTVSS | low polyreactivity
QVHLVESGGGLDQAGGSLRLSCAASGSTDGPYARGWSRQATGKERELVATINSSGSTNYADSLKGRFTISRDNAKNTVYLQMHSLKTEDTAVYYSASLHSYYWNDYWGQGTQVTVSS | low polyreactivity
QVHLVESGGGLDQAGGTLRLSCAATGSIIQSYAMGWYRQAPGKESELVAAITARGTSTYYADSVKGRFTISRDNAKNTVYLQMNSLKPEETAVYYCTTDRSRSPGDVECQSDIKRDYWGQGTQVTVSS | low polyreactivity
QVHLVESGGGLFQAGGSLRISCAASGSIFRFNVMGWYRQAPGKERELVAAITRGDSTNYADSVKGRFTISRDNAKNTVYLQMNSLKPEVTAVYYCAAGFYYYLRDHDYWGQGTQVTVSS | low polyreactivity
QVHLVESGGGLFQAGGSLRLRCAASGRIFRYNTMGWYRQAPGKERELVAAINSSGGRTYYADSVKGRFTISRDNAKNTVYLQMNSLKPDDTAVYYCAAVIYVLSGPGYDYWGQGTQVTVSE | high polyreactivity
QVHLVESGGGLFQAGGSLSISSASSGRTFYWYPMGWYRQAPGKERELVAAITGMGTRTYYADSVKGRFTISRDNAKNTDYLQMNSLKPEDTAVYYCNTRYYGGFDSWGQGTQVTVSS | high polyreactivity
